± gives the standard error. For part of these data: Fewer inactive variants are shown than the library holds.
B1: glmS ribozyme (parent)
chain: AUAAAAGCGCCAGAACUACAGAAAUGUAGUUGACGAGGAGGAGGUUUAUCGAAUUUUCGGCGGAUGCCUCCAAA

Experiments:
Settings in all cases: with glucosamine-6-phosphate
glucosamine-6-phosphate [1] = variants of: B1; experiment: kcat; higher = faster cleavage; RNA array
Summary of the method: (§1)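 Over ~14 h at 37 °C, tiles were imaged as glucosamine-6-phosphate (40 μM to 10 mM) in HEPES/KCl/Mg(OAc)2 buffer flowed across sequenced MiSeq chips. The chips carried barcoded ribozyme variants transcribed in situ by E. coli RNA polymerase and tracked with a hybridised Cy3 probe. After normalisation to baseline and to non-cleaving reference variants, one- or two-exponential decay fits of per-tile medians gave kobs. kcat and KM followed from weighted Michaelis–Menten fits across concentrations.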

glucosamine-6-phosphate [2] = variants of: B1; experiment: KM; higher = weaker cofactor use; RNA array
Summary of the method: as §1

glucosamine-6-phosphate [3] = variants of: B1; experiment: self-cleavage kobs at 160 uM GlcN6P; higher = faster cleavage; RNA array
Summary of the method: as §1

glucosamine-6-phosphate [4] = variants of: B1; experiment: self-cleavage kobs at 640 uM GlcN6P; higher = faster cleavage; RNA array
Summary of the method: as §1

glucosamine-6-phosphate [5] = variants of: B1; experiment: self-cleavage kobs at 2500 uM GlcN6P; higher = faster cleavage; RNA array
Summary of the method: as §1

glucosamine-6-phosphate [6] = variants of: B1; experiment: self-cleavage kobs at 10000 uM GlcN6P; higher = faster cleavage; RNA array
Summary of the method: as §1

glucosamine-6-phosphate [7] = variants of: B1; experiment: self-cleavage kobs at 40 uM GlcN6P; higher = faster cleavage; RNA array
Summary of the method: as §1

Variant | kcat (glucosamine-6-phosphate [1]) | KM (glucosamine-6-phosphate [2]) | self-cleavage kobs at 160 uM GlcN6P (glucosamine-6-phosphate [3]) | self-cleavage kobs at 640 uM GlcN6P (glucosamine-6-phosphate [4]) | self-cleavage kobs at 2500 uM GlcN6P (glucosamine-6-phosphate [5]) | self-cleavage kobs at 10000 uM GlcN6P (glucosamine-6-phosphate [6]) | self-cleavage kobs at 40 uM GlcN6P (glucosamine-6-phosphate [7])
G13U U56G | 0.000921 ± 0.00016 s⁻¹ | 2720 ± 820 µM | 7.12e-05 ± 2e-05 s⁻¹ | 0.000172 ± 2.5e-05 s⁻¹ | 0.000372 ± 6.6e-05 s⁻¹ | 0.000774 ± 9.3e-05 s⁻¹ | 
G63U C70G | 2.12e-05 ± 4.8e-06 s⁻¹ |  |  | 2.59e-05 ± 1.1e-05 s⁻¹ | 2.19e-05 ± 1e-05 s⁻¹ |  | 
C8A G37U C70A | 0.00017 ± 4.3e-05 s⁻¹ |  |  | 0.000214 ± 6.2e-05 s⁻¹ | 0.000331 ± 0.00011 s⁻¹ | 0.000139 ± 3.4e-05 s⁻¹ | 7.9e-05 ± 2.3e-05 s⁻¹
G59A C68A | < 1e-05 s⁻¹ |  |  |  |  |  | < 1e-05 s⁻¹
G13A G41A | 6.21e-05 ± 2.2e-06 s⁻¹ | 1770 ± 270 µM |  |  | 3.77e-05 ± 1.2e-05 s⁻¹ | 5.25e-05 ± 8.1e-06 s⁻¹ | 
A42G U54A | 0.0214 ± 0.0099 s⁻¹ |  | 0.00396 ± 0.0011 s⁻¹ | 0.029 ± 0.0057 s⁻¹ |  | 0.0172 ± 0.004 s⁻¹ | 0.000967 ± 0.00013 s⁻¹
A39U U57G | 2.55e-05 ± 5.3e-06 s⁻¹ |  |  |  | 3.12e-05 ± 1.3e-05 s⁻¹ | 2.2e-05 ± 9.3e-06 s⁻¹ | 
C50A C67A | 2.1e-05 ± 4.7e-06 s⁻¹ |  |  |  |  |  | 
A6U C16G U55A | 1.73e-05 ± 5.1e-06 s⁻¹ |  |  |  |  |  | 
A14G C67G | 0.00362 ± 0.00046 s⁻¹ | 1530 ± 280 µM | 0.000388 ± 6e-05 s⁻¹ | 0.00104 ± 0.00011 s⁻¹ | 0.00164 ± 0.00033 s⁻¹ | 0.00339 ± 0.0003 s⁻¹ | 9.34e-05 ± 8.5e-06 s⁻¹
C50G C70G | 0.000103 ± 1.8e-05 s⁻¹ |  | 0.000142 ± 9.9e-06 s⁻¹ | 0.000112 ± 1.2e-05 s⁻¹ | 9.3e-05 ± 1e-05 s⁻¹ | 8.05e-05 ± 8.7e-06 s⁻¹ | 7.4e-05 ± 7.4e-06 s⁻¹
G13A U55C | 0.000582 ± 0.00014 s⁻¹ | 2910 ± 1300 µM | 3.73e-05 ± 1.6e-05 s⁻¹ | 0.000123 ± 1.6e-05 s⁻¹ | 0.000191 ± 3.5e-05 s⁻¹ | 0.000492 ± 4.8e-05 s⁻¹ | 
C11A U54G | 0.000149 ± 2.7e-05 s⁻¹ |  |  |  | 7.77e-05 ± 1.3e-05 s⁻¹ | 0.000123 ± 1.4e-05 s⁻¹ | 
G32A U54C | 0.00356 ± 0.0013 s⁻¹ |  |  | 0.000309 ± 6.5e-05 s⁻¹ | 0.00147 ± 0.00026 s⁻¹ | 0.0022 ± 0.00036 s⁻¹ | 3.45e-05 ± 1.1e-05 s⁻¹
C8U C10U | < 1e-05 s⁻¹ |  |  | < 1e-05 s⁻¹ |  |  | < 1e-05 s⁻¹
A53U G59A | 4.83e-05 ± 6.3e-06 s⁻¹ |  |  |  | 3.5e-05 ± 1.2e-05 s⁻¹ | 4.2e-05 ± 8.2e-06 s⁻¹ | < 1e-05 s⁻¹
A36U C50G U69G | 0.000296 ± 5.6e-05 s⁻¹ |  | 0.000219 ± 6e-05 s⁻¹ | 0.00036 ± 0.00012 s⁻¹ | 0.000275 ± 0.00013 s⁻¹ | 0.000368 ± 8.1e-05 s⁻¹ | 0.000397 ± 0.00012 s⁻¹
U55G U69G | 7.83e-05 ± 1.5e-05 s⁻¹ |  | 8.02e-05 ± 1.9e-05 s⁻¹ | 8.9e-05 ± 1.9e-05 s⁻¹ |  | 6.23e-05 ± 1.7e-05 s⁻¹ | 

Variant | kcat (glucosamine-6-phosphate [1]) | KM (glucosamine-6-phosphate [2]) | self-cleavage kobs at 160 uM GlcN6P (glucosamine-6-phosphate [3]) | self-cleavage kobs at 640 uM GlcN6P (glucosamine-6-phosphate [4]) | self-cleavage kobs at 2500 uM GlcN6P (glucosamine-6-phosphate [5]) | self-cleavage kobs at 10000 uM GlcN6P (glucosamine-6-phosphate [6]) | self-cleavage kobs at 40 uM GlcN6P (glucosamine-6-phosphate [7])
G29A C67U C71G | 4.81e-05 ± 2.2e-05 s⁻¹ |  |  | 9.19e-05 ± 4.3e-05 s⁻¹ |  |  | 
G40U A53C | 0.00186 ± 0.00029 s⁻¹ | 2780 ± 760 µM | 0.00012 ± 3.1e-05 s⁻¹ | 0.000309 ± 4.6e-05 s⁻¹ | 0.00086 ± 0.0001 s⁻¹ | 0.00149 ± 0.00016 s⁻¹ | 4.37e-05 ± 1.2e-05 s⁻¹
A15C U65G | 0.00172 ± 0.00056 s⁻¹ | 4120 ± 1900 µM | 4.69e-05 ± 1.1e-05 s⁻¹ | 0.000252 ± 3.6e-05 s⁻¹ | 0.000818 ± 0.00012 s⁻¹ | 0.00111 ± 0.00017 s⁻¹ | 3.62e-05 ± 1.3e-05 s⁻¹
U47A C67G | 0.000644 ± 7e-05 s⁻¹ | 2020 ± 350 µM | 5.63e-05 ± 9.9e-06 s⁻¹ | 0.000147 ± 1.3e-05 s⁻¹ | 0.000379 ± 5.1e-05 s⁻¹ | 0.000534 ± 6.4e-05 s⁻¹ | 
G13U U49G | 1.85e-05 ± 6.3e-06 s⁻¹ |  | < 1e-05 s⁻¹ |  |  |  | < 1e-05 s⁻¹
U54C G66U | 0.0027 ± 0.00084 s⁻¹ | 3380 ± 1600 µM | 0.000108 ± 2.3e-05 s⁻¹ | 0.000359 ± 6.3e-05 s⁻¹ | 0.00132 ± 0.0002 s⁻¹ | 0.00199 ± 0.00024 s⁻¹ | 6.62e-05 ± 1.2e-05 s⁻¹
G43A U45A | 5.51e-05 ± 7.6e-07 s⁻¹ | 2720 ± 100 µM |  |  | 2.63e-05 ± 1.1e-05 s⁻¹ | 4.33e-05 ± 1.3e-05 s⁻¹ | 
G63A C70A | 1.85e-05 ± 4.5e-06 s⁻¹ |  |  |  |  |  | 
G60C C70U | < 1e-05 s⁻¹ |  | < 1e-05 s⁻¹ |  |  |  | 
C11U G40A | 0.000548 ± 0.00025 s⁻¹ |  |  | 8.42e-05 ± 2.2e-05 s⁻¹ | 0.000128 ± 3e-05 s⁻¹ | 0.000374 ± 6.8e-05 s⁻¹ | 
A39U | 0.0425 ± 0.0086 s⁻¹ | 3040 ± 720 µM | 0.00176 ± 7.4e-05 s⁻¹ | 0.00683 ± 0.00016 s⁻¹ | 0.019 ± 0.00075 s⁻¹ | 0.0347 ± 0.0012 s⁻¹ | 0.000604 ± 1e-05 s⁻¹
A12C U45C | 0.00344 ± 0.0011 s⁻¹ | 7280 ± 3000 µM | 5.84e-05 ± 2.1e-05 s⁻¹ | 0.000289 ± 7.9e-05 s⁻¹ | 0.000907 ± 0.00016 s⁻¹ | 0.00194 ± 0.00049 s⁻¹ | 3e-05 ± 1.2e-05 s⁻¹
G38U A64U | < 1e-05 s⁻¹ |  |  | < 1e-05 s⁻¹ | < 1e-05 s⁻¹ |  | < 1e-05 s⁻¹
G43U U54G | 8.63e-05 ± 2.8e-05 s⁻¹ |  |  |  | 6.89e-05 ± 1.8e-05 s⁻¹ | 6.53e-05 ± 2.3e-05 s⁻¹ | 
A52U C67A | 0.000206 ± 1.5e-05 s⁻¹ | 1480 ± 240 µM |  | 6.53e-05 ± 8.3e-06 s⁻¹ | 0.000124 ± 1.6e-05 s⁻¹ | 0.000183 ± 2.1e-05 s⁻¹ | 
A15C C70G C71A | 4.1e-05 ± 1.4e-05 s⁻¹ |  | 4.75e-05 ± 2e-05 s⁻¹ | 6.35e-05 ± 1.7e-05 s⁻¹ |  |  | 
C61G U69G | 1.73e-05 ± 4.8e-06 s⁻¹ |  |  |  |  |  | 

Reference: the supplement of paper PMC7125110
